Experimental data from patent US20160002357A1 (Pfizer, published 2016).

The binders below were run against T1, P-cadherin-ECD1-3-Fc protein (human P-cadherin-Fc) (human, UniProt P22223 108-440) (assay: phage scFv ELISA, coated P-cadherin-ECD1-3-Fc).
T1 construct: Construct was expressed with signal peptide and pro-peptide (PACE co-transfected to process the propeptide); not shown: hinge and CH2 and CH3 domains of human IgG1
Description: ScFvs may be expressed on the surface of a phage particle. To prepare phage expressing scFv on their surface, 96-deep well plates containing 1 mL 2× TY media with 2% glucose/100 μg/mL ampicillin were inoculated with 0.5-1 μL from thawed glycerol stocks (one clone per well) using the QPix™2 Colony picker (Molecular Devices, Sunnyvale Calif.) and grown at 37° C. (900 rpm) for ˜4 hours. Next, 5 μL of a 1:29 dilution of helper phage (8.3×10¹³ pfu) was added and the plates and incubated for a further 30 minutes at 37° C. with no shaking then 1 hour at 300 rpm. Plates were centrifuged and the media was replaced with a kanamycin/non-glucose containing media (2× TY with 50 μg/mL kanamycin and 100 μg/mL ampicillin). Plates were grown overnight at 25° C. (900 rpm), and phage were harvested in the supernatant following centrifugation.
P-cadherin-ECD1-3-Fc protein or negative control protein was coated overnight at 4° C. on 96-well Nunc Maxisorp® plates (Thermo Fisher Scientific, Madison, Conn.) at a concentration of 2 μg/mL in PBS+Ca²⁺ and Mg²⁺. Plates were washed three times using PBS+Ca²⁺ and Mg²⁺ and blocked for 1 hour at room temperature in 3% milk/PBS+Ca²⁺ and Mg²⁺. Phage samples prepared as described above were added to the blocked plates for 1 hour at room temperature. Plates were washed three times with PBS+Ca²⁺ and Mg²⁺ prior to the addition of secondary antibody (anti M13-HRP 1:2000, GE Healthcare, Piscataway, N.J.). Plates were incubated for a further 1 hour at room temperature and washed six times with PBS+Ca²⁺ and Mg²⁺. Signal was developed using TMB (SurModics, Eden Prairie, Minn.), the reaction stopped with H₂SO₄ and the absorbance read at 450 nm on an EnVision® plate reader (Perkin Elmer, Waltham, Mass.).

T1 sequence (P22223 108-440): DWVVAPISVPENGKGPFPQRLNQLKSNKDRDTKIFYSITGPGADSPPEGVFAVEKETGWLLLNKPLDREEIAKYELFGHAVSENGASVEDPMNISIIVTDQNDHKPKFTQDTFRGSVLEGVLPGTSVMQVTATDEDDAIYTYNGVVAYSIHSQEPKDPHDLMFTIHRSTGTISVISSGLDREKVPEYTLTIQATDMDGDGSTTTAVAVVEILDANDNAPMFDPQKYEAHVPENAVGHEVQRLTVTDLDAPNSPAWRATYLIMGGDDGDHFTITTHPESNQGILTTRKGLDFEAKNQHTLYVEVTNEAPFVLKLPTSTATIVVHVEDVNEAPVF

Binder | % of binding of Clone #153 to human P-cadherin-Fc [%] | Human P-cadherin-Fc binding (OD450) | Z Score
anti-P-cadherin scFv 153 alanine-mutant L1.11-Ala (scFv, V domains shown, scFv on phage) VH: EVQLVQSGAEVKKPGASVKVSCKASGYTFTSYGISWVRQAPGQGLEWMGWISAYNGNTNYAQKLQGRVTMTTDTSTSTAYMELRSLRSDDTAVYYCATIDTANAFGIWGQGTMVTVSS VL: QSVLTQPPSVSAAPGQKVTISCSGSSSNIGNNAVSWYQQLPGTAPKLLIYDNNKRPSGIPDRFSGSKSGTSATLGITGLQTGDEADYYCGTWDSSLSGVVFGGGTKLTVL | 139 | 1.84 | 0.8
anti-P-cadherin scFv 153 alanine-mutant L1.12-Ala (scFv, V domains shown, scFv on phage) VH: EVQLVQSGAEVKKPGASVKVSCKASGYTFTSYGISWVRQAPGQGLEWMGWISAYNGNTNYAQKLQGRVTMTTDTSTSTAYMELRSLRSDDTAVYYCATIDTANAFGIWGQGTMVTVSS VL: QSVLTQPPSVSAAPGQKVTISCSGSSSNIGNNYASWYQQLPGTAPKLLIYDNNKRPSGIPDRFSGSKSGTSATLGITGLQTGDEADYYCGTWDSSLSGVVFGGGTKLTVL | 173 | 2.29 | 1.6
anti-P-cadherin scFv 153 alanine-mutant L1.13-Ala (scFv, V domains shown, scFv on phage) VH: EVQLVQSGAEVKKPGASVKVSCKASGYTFTSYGISWVRQAPGQGLEWMGWISAYNGNTNYAQKLQGRVTMTTDTSTSTAYMELRSLRSDDTAVYYCATIDTANAFGIWGQGTMVTVSS VL: QSVLTQPPSVSAAPGQKVTISCSGSSSNIGNNYVAWYQQLPGTAPKLLIYDNNKRPSGIPDRFSGSKSGTSATLGITGLQTGDEADYYCGTWDSSLSGVVFGGGTKLTVL | 171 | 2.26 | 1.5
anti-P-cadherin scFv 153 alanine-mutant L2.1-Ala (scFv, V domains shown, scFv on phage) VH: EVQLVQSGAEVKKPGASVKVSCKASGYTFTSYGISWVRQAPGQGLEWMGWISAYNGNTNYAQKLQGRVTMTTDTSTSTAYMELRSLRSDDTAVYYCATIDTANAFGIWGQGTMVTVSS VL: QSVLTQPPSVSAAPGQKVTISCSGSSSNIGNNYVSWYQQLPGTAPKLLIYANNKRPSGIPDRFSGSKSGTSATLGITGLQTGDEADYYCGTWDSSLSGVVFGGGTKLTVL | 110 | 1.45 | 0.2
anti-P-cadherin scFv 153 alanine-mutant L2.2-Ala (scFv, V domains shown, scFv on phage) VH: EVQLVQSGAEVKKPGASVKVSCKASGYTFTSYGISWVRQAPGQGLEWMGWISAYNGNTNYAQKLQGRVTMTTDTSTSTAYMELRSLRSDDTAVYYCATIDTANAFGIWGQGTMVTVSS VL: QSVLTQPPSVSAAPGQKVTISCSGSSSNIGNNYVSWYQQLPGTAPKLLIYDANKRPSGIPDRFSGSKSGTSATLGITGLQTGDEADYYCGTWDSSLSGVVFGGGTKLTVL | 102 | 1.35 | 0
anti-P-cadherin scFv 153 alanine-mutant L2.3-Ala (scFv, V domains shown, scFv on phage) VH: EVQLVQSGAEVKKPGASVKVSCKASGYTFTSYGISWVRQAPGQGLEWMGWISAYNGNTNYAQKLQGRVTMTTDTSTSTAYMELRSLRSDDTAVYYCATIDTANAFGIWGQGTMVTVSS VL: QSVLTQPPSVSAAPGQKVTISCSGSSSNIGNNYVSWYQQLPGTAPKLLIYDNAKRPSGIPDRFSGSKSGTSATLGITGLQTGDEADYYCGTWDSSLSGVVFGGGTKLTVL | 74 | 0.98 | -0.5
anti-P-cadherin scFv 153 alanine-mutant L2.4-Ala (scFv, V domains shown, scFv on phage) VH: EVQLVQSGAEVKKPGASVKVSCKASGYTFTSYGISWVRQAPGQGLEWMGWISAYNGNTNYAQKLQGRVTMTTDTSTSTAYMELRSLRSDDTAVYYCATIDTANAFGIWGQGTMVTVSS VL: QSVLTQPPSVSAAPGQKVTISCSGSSSNIGNNYVSWYQQLPGTAPKLLIYDNNARPSGIPDRFSGSKSGTSATLGITGLQTGDEADYYCGTWDSSLSGVVFGGGTKLTVL | 161 | 2.13 | 1.3
anti-P-cadherin scFv 153 alanine-mutant L2.5-Ala (scFv, V domains shown, scFv on phage) VH: EVQLVQSGAEVKKPGASVKVSCKASGYTFTSYGISWVRQAPGQGLEWMGWISAYNGNTNYAQKLQGRVTMTTDTSTSTAYMELRSLRSDDTAVYYCATIDTANAFGIWGQGTMVTVSS VL: QSVLTQPPSVSAAPGQKVTISCSGSSSNIGNNYVSWYQQLPGTAPKLLIYDNNKAPSGIPDRFSGSKSGTSATLGITGLQTGDEADYYCGTWDSSLSGVVFGGGTKLTVL | 170 | 2.25 | 1.5
anti-P-cadherin scFv 153 alanine-mutant L2.6-Ala (scFv, V domains shown, scFv on phage) VH: EVQLVQSGAEVKKPGASVKVSCKASGYTFTSYGISWVRQAPGQGLEWMGWISAYNGNTNYAQKLQGRVTMTTDTSTSTAYMELRSLRSDDTAVYYCATIDTANAFGIWGQGTMVTVSS VL: QSVLTQPPSVSAAPGQKVTISCSGSSSNIGNNYVSWYQQLPGTAPKLLIYDNNKRASGIPDRFSGSKSGTSATLGITGLQTGDEADYYCGTWDSSLSGVVFGGGTKLTVL | 172 | 2.28 | 1.5
anti-P-cadherin scFv 153 alanine-mutant L2.7-Ala (scFv, V domains shown, scFv on phage) VH: EVQLVQSGAEVKKPGASVKVSCKASGYTFTSYGISWVRQAPGQGLEWMGWISAYNGNTNYAQKLQGRVTMTTDTSTSTAYMELRSLRSDDTAVYYCATIDTANAFGIWGQGTMVTVSS VL: QSVLTQPPSVSAAPGQKVTISCSGSSSNIGNNYVSWYQQLPGTAPKLLIYDNNKRPAGIPDRFSGSKSGTSATLGITGLQTGDEADYYCGTWDSSLSGVVFGGGTKLTVL | 163 | 2.16 | 1.3
anti-P-cadherin scFv 153 alanine-mutant L3.1-Ala (scFv, V domains shown, scFv on phage) VH: EVQLVQSGAEVKKPGASVKVSCKASGYTFTSYGISWVRQAPGQGLEWMGWISAYNGNTNYAQKLQGRVTMTTDTSTSTAYMELRSLRSDDTAVYYCATIDTANAFGIWGQGTMVTVSS VL: QSVLTQPPSVSAAPGQKVTISCSGSSSNIGNNYVSWYQQLPGTAPKLLIYDNNKRPSGIPDRFSGSKSGTSATLGITGLQTGDEADYYCATWDSSLSGVVFGGGTKLTVL | 153 | 2.02 | 1.1
anti-P-cadherin scFv 153 alanine-mutant L3.2-Ala (scFv, V domains shown, scFv on phage) VH: EVQLVQSGAEVKKPGASVKVSCKASGYTFTSYGISWVRQAPGQGLEWMGWISAYNGNTNYAQKLQGRVTMTTDTSTSTAYMELRSLRSDDTAVYYCATIDTANAFGIWGQGTMVTVSS VL: QSVLTQPPSVSAAPGQKVTISCSGSSSNIGNNYVSWYQQLPGTAPKLLIYDNNKRPSGIPDRFSGSKSGTSATLGITGLQTGDEADYYCGAWDSSLSGVVFGGGTKLTVL | 61 | 0.81 | -0.8
anti-P-cadherin scFv 153 alanine-mutant L3.3-Ala (scFv, V domains shown, scFv on phage) VH: EVQLVQSGAEVKKPGASVKVSCKASGYTFTSYGISWVRQAPGQGLEWMGWISAYNGNTNYAQKLQGRVTMTTDTSTSTAYMELRSLRSDDTAVYYCATIDTANAFGIWGQGTMVTVSS VL: QSVLTQPPSVSAAPGQKVTISCSGSSSNIGNNYVSWYQQLPGTAPKLLIYDNNKRPSGIPDRFSGSKSGTSATLGITGLQTGDEADYYCGTADSSLSGVVFGGGTKLTVL | 14 | 0.18 | -1.8
